The values that follow come from paper PMC2606091 (Cell, 2008).

Usually Kd stands for a measure of binding affinity in units of concentration. By stoichiometry N is commonly meant a count of units in the complex or per binding partner.

One data set addresses Hsp33 (Escherichia coli) (UniProt P0A6Y5). The following applies: cited from earlier work.
The data set “AUC” deals with the molecule itself. The experiment in a line: AUC.

For the molecule Hsp33 (from UniProt P0A6Y5), in the data set with Hsp33 (Escherichia coli), the Kd is 590 nM.

B1: Hsp33 oxidised and activated with a 10-fold molar excess of HOCl (Hsp33_(HOCl)) (natural protein)
chain: MPQHDQLHRYLFENFAVRGELVTVSETLQQILENHDYPQPVKNVLAELLVATSLLTATLKFDGDITVQLQGDGPMNLAVINGNNNQQMRGVARVQGEIPENADLKTLVGNGYVVITITPSEGERYQGVVGLEGDTLAACLEDYFMRSEQLPTRLFIRTGDVDGKPAAGGMLLQVMPAQNAQQDDFDHLATLTETIKTEELLTLPANEVLWRLYHEEEVTVYDPQDVEFKCTCSRERCADALKTLPDEEVDSILAEDGEIDMHCDYCGNHYLFNAMDIAEIRNNASPADPQVH
modifications: two intramolecular disulfide bonds (Cys232-Cys234; Cys265/Cys268 fully oxidised) after HOCl treatment
Consider B1, for which, in “AUC”, binding was characterised by a dissociation constant (Kd) of 570 nM and the “stoichiometry N” value was determined as 2.
